In US7115711 (GENERAL HOSPITAL, dated 2006):

T1: Human RXRα protein (human, UniProt P19793 1-462, limits assumed)
T1 construct: Used in the gel shifts
T1 sequence (looked up): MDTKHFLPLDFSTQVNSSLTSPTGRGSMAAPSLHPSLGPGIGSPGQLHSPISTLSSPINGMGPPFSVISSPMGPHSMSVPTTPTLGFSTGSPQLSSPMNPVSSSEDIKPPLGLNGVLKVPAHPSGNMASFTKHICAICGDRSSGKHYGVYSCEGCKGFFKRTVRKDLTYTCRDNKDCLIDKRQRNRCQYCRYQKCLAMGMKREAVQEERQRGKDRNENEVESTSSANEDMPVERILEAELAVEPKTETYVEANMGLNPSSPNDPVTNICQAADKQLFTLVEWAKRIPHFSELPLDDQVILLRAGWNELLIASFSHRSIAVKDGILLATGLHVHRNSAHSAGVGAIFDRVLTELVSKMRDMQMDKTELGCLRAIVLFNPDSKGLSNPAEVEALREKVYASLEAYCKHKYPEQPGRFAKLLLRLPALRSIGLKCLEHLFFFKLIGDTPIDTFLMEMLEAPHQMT

T2: LexA-MB67 (bacterial, UniProt P0A7C2 1-202; Q14994 76-348, limits assumed)
T2 construct: Made by PCR, 'analogous' to LexA-RXR and LexA-TR; also called Lex fusion MB67
T2 sequence (looked up): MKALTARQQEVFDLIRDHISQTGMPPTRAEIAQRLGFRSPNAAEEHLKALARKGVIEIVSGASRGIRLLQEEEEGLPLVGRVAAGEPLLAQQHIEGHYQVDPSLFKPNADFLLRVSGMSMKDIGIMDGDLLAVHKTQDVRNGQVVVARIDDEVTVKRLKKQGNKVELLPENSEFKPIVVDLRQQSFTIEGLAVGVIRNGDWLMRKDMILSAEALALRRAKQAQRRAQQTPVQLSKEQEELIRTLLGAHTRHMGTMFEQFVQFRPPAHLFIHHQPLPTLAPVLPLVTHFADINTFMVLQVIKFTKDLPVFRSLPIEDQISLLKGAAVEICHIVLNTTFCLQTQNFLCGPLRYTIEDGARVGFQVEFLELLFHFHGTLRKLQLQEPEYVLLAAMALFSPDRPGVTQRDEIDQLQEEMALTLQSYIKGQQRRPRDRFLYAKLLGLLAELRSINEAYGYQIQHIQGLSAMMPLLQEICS

T3: LexA-TR (bacterial; rat, UniProt P0A7C2 1-202; P18113 170-461, limits assumed)
T3 construct: also called Lex fusion TR
T3 sequence (looked up): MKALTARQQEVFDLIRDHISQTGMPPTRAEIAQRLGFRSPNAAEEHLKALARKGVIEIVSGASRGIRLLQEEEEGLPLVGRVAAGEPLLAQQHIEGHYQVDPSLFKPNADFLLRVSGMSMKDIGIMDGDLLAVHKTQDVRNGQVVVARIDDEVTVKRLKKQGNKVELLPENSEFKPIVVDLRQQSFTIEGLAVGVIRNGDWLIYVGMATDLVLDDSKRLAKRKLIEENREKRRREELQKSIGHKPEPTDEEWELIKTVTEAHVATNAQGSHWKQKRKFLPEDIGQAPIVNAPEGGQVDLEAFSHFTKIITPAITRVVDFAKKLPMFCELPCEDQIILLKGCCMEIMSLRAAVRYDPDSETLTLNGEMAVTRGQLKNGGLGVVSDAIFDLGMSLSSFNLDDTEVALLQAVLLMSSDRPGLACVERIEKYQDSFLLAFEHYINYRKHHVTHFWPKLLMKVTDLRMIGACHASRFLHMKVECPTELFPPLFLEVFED

B1: RIP15 (receptor)
chain: MSSPTSSLDTPVPGNGSPQPSTSATSPTIKEEGQETDPPPGSEGSSSAYIVVILEPEDEPERKRKKGPAPKMLGHELCRVCGDKASGFHYNVLSCEGCKGFFRRSVVHGGAGRYACRGSGTCQMDAFMRRKCQLCRLRKCKEAGMREQCVLSEEQIRKKRIQKQQQQQPPPPSEPAASSSGRPAASPGTSEASSQGSGEGEGIQLTAAQELMIQQLVAAQLQCNKRSFSDQPKVTPWPLGADPQSRDARQQRFAHFTELAIISVQEIVDFAKQVPGFLQLGREDQIALLKASTIEIMLLQTARRYNHETECITFLKDFTYSKDDFHRAGLQVEFINPIFEFSRAMRRLGLDDAEYALLIAINIFSADRPNVQEPSRVEALQQPYVEALLSYTRIKRPQDQLRFPRMLMKLVSLRTLSSVHSEQVFALRLQDKKLPPLLSEIWDVHE
notes: Intact 446 amino acid protein; It was translated in vitro for gel shifts and expressed from a CDM vector in HepG2 cells
B2: B42-RIP15 (other, not shown: large carriers)
chain: EEQIRKKRIQKQQQQQPPPPSEPAASSSGRPAASPGTSEASSQGSGEGEGIQLTAAQELMIQQLVAAQLQCNKRSFSDQPKVTPWPLGADPQSRDARQQRFAHFTELAIISVQEIVDFAKQVPGFLQLGREDQIALLKASTIEIMLLQTARRYNHETECITFLKDFTYSKDDFHRAGLQVEFINPIFEFSRAMRRLGLDDAEYALLIAINIFSADRPNVQEPSRVEALQQPYVEALLSYTRIKRPQDQLRFPRMLMKLVSLRTLSSVHSEQVFALRLQDKKLPPLLSEIWDVHE
notes: Original yeast clone; Its B42 fusion junction is near the beginning of the hinge (D) domain, with no residue number stated; also called B42 fusion 15; RIP15 chimera

Assays:
Human RXRα protein = biological target: T1, Human RXRα protein; assay: gel shift of in vitro translated RIP with E. coli-expressed RXRα on labeled βRARE; the complex with RXR is seen on DNA
Protocol: The binding of the RIP14-2 isoform to this element was weaker than that of RIP14-1 when similar amounts of RIP14 proteins were used. […] Several other DNA elements were tested in the gel shift assay, including the retinoic acid response element from the promoter of the human RARβ2 isoform (βRARE) (de The et al., Nature 343:177–180, 1990). In the presence of RXR, the βRARE was bound by both the RIP14 isoforms and RIP15 (FIG. 8, panel B). Again, the binding of the RIP14-2/RXR heterodimer was weaker than the RIP14-1/RXR heterodimer when a similar amount of RIP14 proteins were used (FIG. 8, panel B, lanes 10 and 14).
RIP14 and RIP15 proteins were produced by in vitro translation (Promega TNT, Madison, Wis.) using expression vectors containing the RIP genes following a T7 promoter. To generate full length RIP14-2 constructs, fragments from RIP14-1 clone No. 15 containing regions from the middle of the E domain to the 3' end replaced the corresponding regions of RIP14-2 Clones No. 3 or 12, respectively. Sequences were confirmed by DNA sequencing. Human RXRα protein was expressed in E. coli using a bacterial expression vector based on the bacteriophage T7 promoter (Carter et al., Mol. Cell. Biol. in press., 1994). […]

LexA-MB67 = biological target: T2, LexA-MB67; assay: yeast interaction trap, X-gal plate; W = white (no interaction)
Protocol: (§1) Interactions of the RIP clones with other superfamily members, including RAR, TR, the glucocorticoid receptor (GR), and MB67, an orphan isolated in this lab (Baes et al., Mol. Cell. Biol. 14:1544–1552, 1994) were also tested using a series of appropriate LexA fusions. In particular, the experiments shown in Table 1 were carried out as follows. Yeast transformants containing a lacZ reporter gene under the control of LexA binding sites and the indicated B42- and Lex-fusion protein expression vectors were transferred onto galactose-Ura⁻His⁻Trp⁻ plates containing X-gal and incubated for two days. Relative levels of β-galactosidase activity were estimated and are depicted as follows: B, blue (strong interaction); LB, light blue (weak interaction); W, white (no interaction); nt, not tested. At least three separate colonies were tested on the same plate for interaction. To test the effects of ligands, 100 µl of a 10^-6M solution of the appropriate ligand was spread onto plates just before inoculation of cells (9-cis-RA for RXR, T3 for TR, and all-trans-RA for RAR). For B42-PPAR, the plasmid isolated from the screening was used. Both full length and truncated RAR fusions to LexA were tested with identical results for all the B42 fusions except B42-110, which was tested only with the full length fusion.

LexA-TR = biological target: T3, LexA-TR; assay: yeast interaction trap, X-gal plate, with T3; W = white (no interaction)
Protocol: as §1

| Binder | binding result (Human RXRα protein) | binding result (LexA-MB67) | binding result (LexA-TR) |
| --- | --- | --- | --- |
| B1 | binds |  |  |
| B2 |  | no binding | no binding |
